Assay results reported in PMC5792622 (Nature Communications, 2018).

Target: the molecule itself
Experiment: crystal structure

B1: hexon protein of HAdV5^HVR7 (human adenovirus type 5 with four mutations in hypervariable region 7 of the hexon) (natural protein)
chain: MATPSMMPQWSYMHISGQDASEYLSPGLVQFARATETYFSLNNKFRNPTVAPTHDVTTDRSQRLTLRFIPVDREDTAYSYKARFTLAVGDNRVLDMASTYFDIRGVLDRGPTFKPYSGTAYNALAPKGAPNPCEWDEAATALEINLEEEDDDNEDEVDEQAEQQKTHVFGQAPYSGINITKEGIQIGVEGQTPKYADKTFQPEPQIGESQWYETEINHAAGRVLKKTTPMKPCYGSYAKPTNENGGQGILVKQQNGKLESQVEMQFFSTTEATAGNGDNLTPKVVLYSEDVDIETPDTHISYMPTIKEGNSRELMGQQSMPNRPNYIAFRDNFIGLMYYNSTGNMGVLAGQASQLNAVVDLQDRNTELSYQLLLDSIGDRTRYFSMWNQAVDSYDPDVRIIENHGTEDELPNYCFPLGGVGNNSTYTKVKPKTGQENGWEKDATEFSDKNEIRVGNNFAMEINLNANLWRNFLYSNIALYLPDKLKYSPSNVKISDNPNTYDYMNKRVVAPGLVDCYINLGARWSLDYMDNVNPFNHHRNAGLRYRSMLLGNGRYVPFHIQVPQKFFAIKNLLLLPGSYTYEWNFRKDVNMVLQSSLGNDLRVDGASIKFDSICLYATFFPMAHNTASTLEAMLRNDTNDQSFNDYLSAANMLYPIPANATNVPISIPSRNWAAFRGWAFTRLKTKETPSLGSGYDPYYTYSGSIPYLDGTFYLNHTFKKVAITFDSSVSWPGNDRLLTPNEFEIKRSVDGEGYNVAQCNMTKDWFLVQMLANYNIGYQGFYIPESYKDRMYSFFRNFQPMSRQVVDDTKYKDYQQVGILHQHNNSGFVGYLAPTMREGQAYPANFPYPLIGKTAVDSITQKKFLCDRTLWRIPFSSNFMSMGALTDLGQNLLYANSAHALDMTFEVDPMDEPTLLYVLFEVFDVVRVHRPHRGVIETVYLRTPFSAGNATT
modifications: biotin (NHS-biotin), for the SPR only
notes: also called HAdV5^HVR7 hexon
stoichiometry N: 3
